In the DeepSol protein solubility set:

Experiment: soluble on expression in E. coli; label from the status in PepcDB or PDB records

Soluble on expression in E. coli, not soluble:
MGSDKIHHHHHHMSDKTNLSHNVVNKEEFAGDPKPHPAAYTLVREDKGLGSTPKLPLETSYVKGLLKHDKFFQKALSNPIVAREFFEEYLPTEIKALFSPTTLTLENDSFIDPNLKESITDVLYSARINNRDCYIYILCEHQSSSDPHMAFRLFKYMLNIAEKHLISHPDSKKFPFIYPLVYSNDHKKYTAPLNLWDLFENSELVKDTWSNNYQLISLRDISDDKLKENPWLAPLQILMKYIHKPNVFDKWQEISGCLATIAASSSGIEYIKSALSYSLTKI
MGSDKIHHHHHHMSDLINIQKKLLPDVLMIMQKRYQILRSIYFSEPVGRRTLAGMLGMSERVLRGEVEFLKAQGLVEIASSGMTVTKEGLVVFRDLESVMNQLSGLHSMEEQLAKKLQIKKCLVVQGDSDDTPWVREEMGRVAVEQLDMALTEKRNIVAVMGGSTMATVAEMMTTDFAKGRELLFVPGRGGIGEDLDNQANTICDKMATKTNTKHRVLYVPEQLGEEAYRSLLKEPAIQEGLRLVQSANAIILGIGDALAMAKRRHTGEDVLEKIIHRKAVGEAFGYYFDEQGEVVHKVPTFGLQFEDLAQIPHIIAVAGGTSKAKAIKSYMKSAPKNTILITDEGAAKSLLKGSNTLLK
MGSDKIHHHHHHMSDNDLQRRILDAVDAGFDAQLATTRDFVAIPSTRGAEGPCQDMIGDLLRQRGYEVDDWHIDLDDLKDLRGYGPIEHDFSKARTVVGTYRPSTNAGRSLILQGHCDVVPAGPLEMWDTPPFSPVIKQGRMYGRGACDMKSGTIGALYALDAIKAAGLRPTGRIHFQSVIEEESTGVGALSTLQRGYRADACFIPEPTGGKMVRSQVGVIWFRLKVRGYPVHVATAGTGSNAITAAYHLIDALGKLEEEWNRRAASDPHFKTLAHPINFNPGIIKGGDWASSVPAWCDVDCRIAILPGWSVADHQAEILACVSAAARDHRFLSNNPPQVEWSGFLSEGYELKNAAEPEAAFGKAYQAVYGSEVEDLVFTALTDTRFYGLNYNIPSLCFGASGEAMHGFNEYIDLESLRQSTKATALFIAEWCGVEPA
MGSDKIHHHHHHMSDNEIVAGIMRDHIINLLKEGKRIDDRGFEDYRPIEIEVGIIEKAEGSALVKLGSTQVLVGIKTTLGEPFPDTPNMGVMTTNVELVPLASPTFEPGPPDERAIELARVTDRGIRESRALNLEKMVIVPGKIVRVVFIDVHVLDHDGNLMDAIGIASIAALLNAKVPKVEYNEETGEVEILEEKEPLPVERIPIPVTFAKIGNILVVDPSLEEELVMDGRLTVTTDETGHISAVQKGEGGAFKLEEVMYAVETAFKKAEEIRKIVLEAIKKSGE
MGSDKIHHHHHHMSDTLLEIDNLTVDFQLPTGTVSAVKHVSFSLQPGETLALVGESGSGKSVSSTAAMRLLPELARTSGAIRFKGEDLLRATPRRMRHIRGNAISMIFQEPMTSLNPLHRIGRQIAEVLEKHRGLKGRQARTKIVELLEQVGIPDPARRIDSYPHELSGGQRQRVMIAMALACEPELLIADEPTTALDVTVQAQILALLKDLQARYGMAILFITHDLGIVRHFADRVCVMRRGELIESGPTAELFDTPRDDYTRMLIDADPRGRKTPVDPSMPVLFEAKDLQVRFTLKKRLFRASEHFEAVRGIDLTIRRGQTVGIVGESGSGKSTLGRALLRLLDSRGEIRFDGQDIAALDTAGMRPLRSRLQVVFQDPFGSLSPRMTVGEVISEGLRVHHPTLDRRQREARVIEALEDVALDPAMRNRYPHEFSGGQRQRIAIARALVLKPEFLLLDEPTSALDRSVQVTVIDLLRDLQQKHGLTYLFISHDLSVVRALADTVLVMKAGQVVEQGATEEIFANPREHYTRELMRAAFVDAA
MGSDKIHHHHHHMSEFYGAQHRQWQEHFDGVAMADRVRELIVLPSIPEEHAGFIGSRDFFFLSTIDHRGFPTCSYKGGQPGFVKILDDTTLAFPSLDGNSMYLSMGNLSLNPKIGMLFIDFETPHRIRVHGTASVKPDDTLLAEYQEAELIVRIKIEEIFVNCPRYIHKHQRVQHSPYVPQAGCTTRTPQWKRLDSVQDVLRQPDLEKVSRMGGPITIEEYMELVLQGDA
MGSDKIHHHHHHMSEKKILILCQYFYPEYVSSATLPTQLAEDLIANHINVDVMCGWPYEYSNHKQVSKTEMHRGIRIRRLKYSRFNNKSKVGRIINFFSLFSKFVINIPKMLKYDQILVYSNPPILPLIPDVLHRLLKKKYSFVVYDIAPDNAIKTGATRPGSMIDKLMRYINRHVYKNAENVIVLGTEMKNYLLNHQISKNADNIHVIPNWYDMRQLQDNRIYNDTFKAYREQYDKILLYSGNMGQLQDMETLISFLKLNKDQPQTLTILCGHGKKFADVKTAIEDHRIENVKMFEFLTGTDYADVLKIADVCIASLIKEGVGLGVPSKNYGYLAAKKPLVLIMDKQSDIVQHVEQYDAGIQIDNGDAHAIYNFINTHSSKELHEMGERAHQLFKDKYTREINTMKYYNLLK
MGSDKIHHHHHHMSEKKKVLMLHGFVQSDKIFSAKTGGLRKNLKKLGYDLYYPCAPHSIDKKALFQSESEKGRDAAKEFNTSATSDEVYGWFFRNPESFNSFQIDQKVFNYLRNYVLENGPFDGVIGFSQGAGLGGYLVTDFNRILNLTDEQQPALKFFISFSGFKLEDQSYQKEYHRIIQVPSLHVRGELDEVVAESRIMALYESWPDNKRTLLVHPGAHFVPNSKPFVSQVCNWIQGITSKEGQEHNAQPEVDRKQFDKPQLEDDLLDMIDSLGKL
MGSDKIHHHHHHMSELIEVTHLTFTYTGQAAPALKDVSLTIHAGEFITLVGATGSGKTTLLKQLKHELWPAGERTGSLTFQDTAIQALSPVESAQQIGYVAQDPQVQPIMATVMEELAFPLENLGYPTATINDRIAEIANYLDLNHLLQRAIETLSGGQLQLVNLASVLALKPQVILLDESTAQLDPTTAQKFLNILQQVHDELDLTIVLTEHRLSRVMALTDRVALLANGQVLTVAEPTPALQQMAATPALQAFVPPVPHFFLDHNLVVTPLPLSVTMGRRALRQSSWRFQAVTTRQPAQSGPRESVLVATGVSFHYPTTGDILHQVELQVATGDWLAIIGKNGSGKSTLLTVLAGLQKPQHGKVRLNQQVIWRMKNQDRVLQVGYLSQNPTEQFNGDSVREELTAQAQLRGTSVAQRVDQMLIRCHLTAVADQNSFDLSGGQQQLLGLGLALMTEPQVLLLDEPTKGLDPDTKLRIGQLLQQAHETGLTIIMASHDMDFSAQFADTCTFMFNGRVNPPQATRLFFTQNFLATTAVNRLLRQQVPQALFSQDVVRTDKGGE
MGSDKIHHHHHHMSELLGLIVDARPLQAHFRIPHTSLLLDTYPFPPKTTAVGMLAGCMGLGEEGFKKLLEKIKYGVIIEDPGEKIEEVSVIYKNPYSPSYPITRVSLYKPRFRMFFAGEERVIEEAYEGLLDPKFVPYMGDSESLFYPGKKRYVEVVDVQEGKEDILRSVIPEVKFKEFVPLRRKVLVPKVYEAPVKFTYKGKSRRAVYGRFIAFSGGYVKLEKKIDVLLFDGEPIATF
MGSDKIHHHHHHMSEQMFEGWNGAIVVTPETVKIIYGNQHSKGEGEKEITLESIQSIELKKPRFLAQGYIQLILEGSKKKKGALAAMGDEHSIMINDEAQYKQFEQAKELIELFQHEQKLVSEQNEKGEGWREDVFKGGNGTLVVTPETIKIIYSWLHTRGRGEKTINIRSISSIQLKEPAVVAGYIQFTFQGSIENQSRSSFSAIDDQNTIAISNKHQFEDFKRAKALIESYQNQLYAPQIQSSSTSGADELKKYKELLDDGIISEEEFNAKKKQILGI
MGSDKIHHHHHHMSEVHTTIIDLDAGAVFSGTPSGRIIKGFDKPCAHTPNIDPDYVFHECSRDIVVWLMDSSDPLYVFGPTGSGKTSAIKQLAARLNYPVFDVTGHGRLEFPDLVGHLSVRDGSMEFQYGPLALAMRHGGILLLNEIDLLEPATATGFNGILDGEPLCIPENGGEIITPHPMFRFAATANTNGGSDDTGLYQGTLRQNLAFLDRFWLCEMPYPAPEAEKALLERRAPMLPDDIRTRMVDYANEVRRLFMGESGTTYGHSIEVTFSTRTLLRWADLTVRFQPLARQGIQPLTYALDRALGFKASKDTRTTLHELAQRLFPQHAATGE
MGSDKIHHHHHHMSFVSYAQNFEDVMLWRALRHIKNGYYIDVGAFSADEDSVTRAFYDQGWSGINIEPNPKYHEELVARRDRDINLRVAVSDRAEDRALYVIDDTGLTTLEPDIAEMHREKGFSKIDVVVPALTLEEIWTTHVPQDQDVHFLKIDVEGHELPVIKGLDWDRHRPWIVVVESTLPATQQLSETGIVEALAKADYEAVYWDGLNRYYVAKERAELTKYFDDPPNVFDGFRRSSEVEFEQRALQAEAELYLEREHVVRISKENWDHVHHALEVKFSALQEAMAAEAQAARRDVTQELVELRMQLSKQGMTSSFWTRFFFRPTGKPKKALRRLLFHTNGKPRGIFRNRVLKSNGQPRPAFLRWMASAEYQQLRRAVKVAASDESQHVLESGASTLSQNEGVFVGVLQSARTEKSH
MGSDKIHHHHHHMSGGSSMTDQGWAMKGELVLSCNCTVFCPCVLSLGNHAPTEGYCQTWAGFRIDAGHFGEVDLSGLNLGLIMEIPGYMSRGNWTAGLFIDKRASIYAVKALTKIFTGKAGGTTSLLSILVGKFLPITYETRDKMRIFQIPKIIDGAVTPIAGKDREKDTVITNSEYWIAPEIIVARSDKSKMRAFGRNWNFAGRSAEICKLDWRGP
MGSDKIHHHHHHMSIAIRRDEEIALSCHGVSKSFVISGEQNIWRMFCALPVRGEVFAALRDVSLEVPRGKIVGILGRNGAGKSTLLRVLGGVYQPTSGTVDVHGQVCGLFEMGGFGNRELSGREYATRYLTVMGAPRKDRGDLLADIAEFSELGADFDRKILTYSAGMAARLYFSTATAMRHEIYLIDELLSVGDEHFQAKCWIRMRNLLLNGASGILVTHDWVSTLKLCQQSHILERGSIVASGRTDAAVVKYLDLPVPDGALARFCDSDRATWHAVAGEDAVFEFDIESEEDIPLVFTYSVELMRIGIGWDIMLLGQRPIGSGNGRRRVQLKVPALPLAPGEYSLTVGLIKEKTRAEDEAVICDARGWTTGNGYVLEVSGTLEQGTTILPMEISGWIDD
MGSDKIHHHHHHMSIDTITLQCFLAVAETQSFTKAAQRVGRTQSAISQQIAKLENLIEKPLINRGRELSLTTDGEIFLGYAKRIYELHRESLDRFKAPELQGEIRFGLPEDFASIILSDVLVEFSRLHPRVLLNVECDLTLNLIERFNEGKFDLILIKTTQQQVGSESIYVCTEPVEWIGKKELLPLLDKPGPIPLVLSPTPCVYRGNVIDTLDKNHIDWRLVYSSASYAGKMAAVRAGLGITAIQRSMIPNYLERLDYDFLPILNDVHVSLLKKSGSNKAIESLEFFILQKLKY
MGSDKIHHHHHHMSIEAKFKKLGTDNAPGQEVRQSAAGLEALIRGAPIEGRPVDFSHGDVDAHEPTPGAFDLFSAGVQSGGVQAYTEYRGDLGIRDLLAPRLAAFTGAPVDARDGLIITPGTQGALFLAVAATVARGDKVAIVQPDYFANRKLVEFFEGEMVPVQLDYVSADETRAGLDLTGLEEAFKAGARVFLFSNPNNPAGVVYSAEEIGQIAALAARYGATVIADQLYSRLRYAGASYTHLRAEAAVDAENVVTIMGPSKTESLSGYRLGVAFGSRAIIARMEKLQAIVSLRAAGYSQAVLRGWFDEAPGWMEDRIARHQAIRDELLHVLRGCEGVFARTPQAGSYLFPRLPKLAVAPAEFVKILRLQAGVVVTPGTEFSPHTADSVRLNFSQDHEAAVAAARRIVTLVERYRA
